From the DeepSol protein solubility set

Experiment: soluble on expression in E. coli; label from the status in PepcDB or PDB records

With “MGYKELLLECQKLLNEGDFEGMIKKLEELSKMEPSSKEEAEESLKLLDFLIEEVKKRQEEIFNKMVNYQKFKNYLR” the “soluble on expression in E. coli” value was “not soluble”.
In the case of “MTKIKIVVIVGPTAVGKTALGISLAKAFNGEIISGDSQQVYRQLDIGTAKATQEEQEAAVHHLIDIREVTESYSAYDFVQDAQKSISDIVSRGKLPIIVGGTGLYLQSLLEGYHLGGQVDQEAVKAYRNELEQLDDHDLYERLQVNNITIEQVNRRRAIRALELAQFADELENAETAYEPLIIGLNDDRQVIYDRINQRVNRMIENGLLEEAKWLYEHYPTVQASRGIGYKELFPYFVGEMTLAEASDQLKQNTRRFAKRQLTWFRNRMAVSFTAITAPDYPQVVHDRVRDFLGQKEKSLEHHHHHH”, the “soluble on expression in E. coli” value is reported as “not soluble”.
For “MSLFYEEVFSDLKEEEKALLEFISSGNLEIDRKLEGGVPVGSLCLLEGGNDSGKSIFLQQIMWGALNQDKRVLALATEKTSKELLNQMESLKHGISDYFIIGRAKIFEINAGYVEENPQLSESLLQVLLECIKRCKEELILIDSLTIFAVNASENAVLNFFTECVKLCDNGKTILISVHGYAFSQSVLYRLRSVCSVCLELRIEQVGDQWIKTMEIQKLRGARKTRGNLLSFDVDSKFGLKIIPVSKVKAEGHHHHHH”, the “soluble on expression in E. coli” value was “soluble”.
With “SLPGKLALKLDPTILKHLAKNYDVIVITGTNGKTLTTALTVKVLREQYPDILTNPSGSNMKQGIVTTFLRAPKAHQKPLAVLEVDEANVIMVTKYITPKAFVFTNIFRDQMDRYGEIYTTYQKILDGVALAPEATIIANGDLPLFNAKQLPNPILYYGFDYQPDHDQQAPANTDGLLCPRCQHILRYHSRTYSNMGKYYCPHCGFERPQLTYKLNALTAMTPTSSDFEINGQAMHLNIGGQYNIYNALAAYAVGRFMDVTPAKIAHALSDNDEQV” the “soluble on expression in E. coli” value was “not soluble”.
In the case of “MNFSIRVILLLTGFVSLAFSAPKFLTISDIHYGAENIAKDGQDTGKEFLDVTFKRFEELSQNVDFILHLGDLPTHSLFSIPKKEEYEQVVFHGLHEANPGQKPMFYITGNNDSLLGNYQPFSSDNKSPLNLALDWDGACAYCDGLIIDDTHMRKDGYYSSYVIPNNKEIILIALNSVQWTKTPVFLPKYPNQQRDAFVQLFWLEQQLKNHRAKQLLLAMHVPPGTAYNGNRFWHDIYLDRFLTLLDKYHQSYDQITILFSHSHMEEFRKIRLSDGSTIYAFSTPGISRAHHNNPGMKIFDLDKQMRVRNSTTYYTSDLYEWGNEYYQAMNTPDAIFPNCQNKTIPQCLDTLSPEQVCNNLEVGLFYGVKSTRVPYQGCIKTYQINLEHHHHHH”, the “soluble on expression in E. coli” value is reported as “not soluble”.
In the case of “MPDSMSEQLRRDMQCEGLLECFHGLKELDKECFRALVEAEEPLTVDELADAVDRERSTAYRAVQRLLQTGFIEKDQINYDQGGYYHVYSPTDPSQIADEMQRMLNDWYAKMGQLIQEFENKYEQSESTAPTVES”, the “soluble on expression in E. coli” value is reported as “soluble”.
For “MGTLLATRLKNRRKELKMSQRELAEGICKQGQISRLESGEFTPGADFLHALAKKLKVSMDYFFDEQVVEEVNELSEFKKLAQTFITNRNYESLKYIYELENVKAHRLSLADKFYMEWIKSLIDFYFYGQKEEAITRLENMLPQLNVSDLNYLQVSNTLFNFYYDIEDLERFNEIRDKLEHQVNQLNLNTIEELELSIKFNYNVCRYLWLQKNIEEAITKITATIKQCKEYRTTYLLADLYLLMGSVSENFSSKSSVKEYFETAHFLYKLEENMSMALKVEHYFADITE”, the “soluble on expression in E. coli” value was “not soluble”.
For “MLYAATRATLKKEFGGGHIKDEVFGTVKEDVSLHGYKKYLLSQSSPAPLTAAEEELRQIKINEVQTDVGVDTKHQTLQGVAFPISREAFQALEKLNNRQLNYVQLEIDIKNEIIILANTTNTELKDLPKRIPKDSARYHFFLYKHSHEGDYLESIVFIYSMPGYTCSIRERMLYSSCKSRLLEIVERQLQMDVIRKIEIDNGDELTADFLYEEVHPKQHAHKQSFAKPKGPAGKRGIRRLIRGPAETEATTD”, the “soluble on expression in E. coli” value was “soluble”.
For “MGSDKIHHHHHHMSQMHQQLINEYTRTRLNEEAVSIERIYFYKTDKRVNPKQEEPFWHAAGDIPILVSAPHAVRHFRQKKIKMSDEYTGSIVYLLNKLTGCHAIAVTKLYGGDPNVDSPCIYKEKLAQLCRQGKIKLLLDIHGAARDRDFDVDFGTNNRRNLLEKMHTDEILAQNFRNCGFSKISSDYFAASSPNTIANFAARELGIPAVQIEINKHYRVPAQNPQGFHRLMAALVESINSVGRRYQEGWKDINRERKIR”, the “soluble on expression in E. coli” value was “not soluble”.
In the case of “GSHHHHHHGSHMDEKLLKTIAESKYLVALTGAGVSAESGIPTFRGKDGLWNRYRPEELANPQAFAKDPEKVWKWYAWRMEKVFNAQPNKAHQAFAELERLGVLKCLITQNVDDLHERAGSRNVIHLHGSLRVVRCTSCNNSFEVESAPKIPPLPKCDKCGSLLRPGVVWFGEMLPPDVLDRAMREVERADVIIVAGTSAVVQPAASLPLIVKQRGGAIIEINPDETPLTPIADYSLRGKAGEVMDELVRHVRKALS”, the “soluble on expression in E. coli” value is reported as “soluble”.
With “MLIMNIRKIDDYTYEIPREGDMIVHGIVYSTDKLFKNTVEDGSLNQVVNVAKLPGIVEASYAMPDIHLGYGFPIGGVAAFDYDEGIISPGGVGYDINCGVALLRTGMNYAQIKPRIKDITDYIFQEVPSGLTSRKGFPVNQNDLQEILTSGLKWAVSRGLATELDMINTEDNGSIESHGTHVSKQAMQRGLSQIGTLGAGNHFLEIQRVSDIFDEDVARKFGLYKDEVTVMIHTGSRGLGHQVATDYLRELRESRESIKTSDPELISIHVKSKIGENYLDAMKSAANFAFVNRQMAIYGVRKVFKKFFDVEPELVYSLAHNIAKVEDHIVEGKTKSLIVHRKGATRAFGPGKSSPPFEDTGHPVLIPGSMGTASYVLVGVKENLIKSFGTACHGSGRVLSRNQAIKKFSSIVDRELEEKDVYARPATKRVLYEEAPGSYKNVDEVVAAVEGAHLARSIVRMVPLAVVKGLEHHHHHH” the “soluble on expression in E. coli” value was “not soluble”.
For “MDYKVSVLIVCYNQEKYIKKALESVLSQKVNFNYEIVVCDDCSSDRTFNILQEYKSKLGSKLNLIRNYKNLGITLNYKNGFKNCKGEYIAVLEGDDYWIQKSKLKRQVSFLESNRDCSLVFNKIVLDYGDEKINNLIYPFNDIRKKFSARELVRSNFIQNFSCCMYRKSSIRKLRESIYDMVVYDWMFNMAVAQFGLIGYIPNYMTSHRILKSGLWSGKSKMENLQMISKCIDQYDSFFKYKYRKEFSQNKQEVLQALRRLVMVNENGLEHHHHHH”, the “soluble on expression in E. coli” value was “soluble”.
In the case of “MKVLRHGLFKDRRVFDENYIPPELRVRRGEAEALARIYLNRLLSGAGLSDVNMIYGSIGRVGIGKTTLAKFTVKRVSEAAAKEGLTVKQAYVNAFNAPNLYTILSLIVRQTGYPIQVRGAPALDILKALVDNLYVENHYLLVILDEFQSMLSSPRIAAEDLYTLLRVHEEIPSRDGVNRIGFLLVASDVRALSYMREKIPQVESQIGFKLHLPAYKSRELYTILEQRAELGLRDTVWEPRHLELISDVYGEDKGGDGSARRAIVALKMACEMAEAMGRDSLSEDLVRKAVSENEAASIQTHELEALSIHELIILRLIAEATLGGMEWINAGLLRQRYEDASLTMYNVKPRGYTQYHIYLKHLTSLGLVDAKPSGRGMRGRTTLFRLAPHLPADRLIEVVDNIIQAKMASGYE”, the “soluble on expression in E. coli” value is reported as “soluble”.
For “MPSSKTSARRAPSSPGASLWSLPLIRKLCCAPGCEELAPAGQAHCADHAAEAEARARSRKARAKAGAAAQAGAAFYATGRWRRARARFLAAHPLCADCAGLGLVVAAAEVDHIRPHRGDPGLMWDRANWQPLCRPCHSRKTAREVFHPPGGIAKSEGSARLEHHHHHH”, the “soluble on expression in E. coli” value was “not soluble”.
With “MGSDKIHHHHHHMNVLYVTVDALRADHVTPELMPNVSGFVDRSIEYERCYANGPGTPWSFPALLGSQYSGANDGVGIPGEDDSRPTLAEVLRDEGYETAGFTDNHFASSDYNYDRGMTTMFDAGATSSEKRLKQAVRKRLDHDGTLYQMLLRGHHLIDDLLVKIQGRDTRFTRAETLIDSLVDWIDERNDQWFAWLHPMDTHAPYEAPDDYQEQFLDEPIPRRRSQKLARKATHHPDELSDDEWELQQQLYKAECSYLDDQIGRLLDSFPEPERENTLLVFTADHGEMHGEHGLGGHPQQFWEEVIHVPCAISAPGFEATTVNEQAALIDIPPTILDAVGIDAPEYWDGMSVLPDEGTVQEREYVFVDVESELNRNHAGVRRSDNWKLMRHDDEGELLLDLDTNPEEDPEQTRLNDAPEAYRALTDSLDNHLDEMERRRSGETSGIEDEELIEDHLRELGYLE” the “soluble on expression in E. coli” value was “not soluble”.
With “MGSDKIHHHHHHMYKNSMVIGKFYPPHAGHAHLINTAAAQSENVSVLVLGNRFESITVADRTTWLAAEFEDIAGVHVIGMPNDCPEDYDSEEIWKAQSELMRLALKTHGVTEVEAVFSSEEYGAQLAQAFGAEHVLVDQSRTTFPISGTLCRDDLGSAWPFIIGPARQGLATRIILVGAESSGTSTLAKALTEHYRPRFPGITDVPEYGRDYTYEKFDALRAKMPEAVLEDMVWNEQDFGRIATRQNEMENAAADACPLVIADTDSLATTLWERFYIGERSYGSYLAASNLPPRDLYLITDHEGVEFEDDGWREGEHRRAEMTEWFKEALTAEGHSWILVSGDHERRKQTAVEIIELILMQRSKFTSPPWATRTVLEGAAV” the “soluble on expression in E. coli” value was “not soluble”.
In the case of “MRPRRSLLSVPAINIRALEKIRELDCDGVILDLEDSVAPDMKGKARENLEKLFSGPPFDGRETIIRINPLSTPDGKADLQLVLSCRPDAVLLPKVEQPSDIHDVADFLAEADAPEHLKIWAMIETPLGVLNAASIADAAHTPNARLAAFVIGLNDLRKETHVPRLPGRTYLVPWMMQVILAARAYGLDVIDSVSNDFRDIEAFEAECEQGRAMGFDGKMLIHPAQIEAANRHFGPDEATLAEARAIIAAFAKPESVELNIINMNGQMIERLHVGQAERLVAMADIIAQRKAKKT”, the “soluble on expression in E. coli” value is reported as “not soluble”.
In the case of “MTAPFKDHFSTGSANYAAHRPTYPAQLVDELAALCPGTRLALDCGCGTGQLTVLLAERFERVVGTDASAAQIDKAQARERVEYRVALAEDSGLAAASADLVTVAQAAHWLDLPRFYEEVRRVARADAILALVTYGVLHVDGPMEPLVQHFYHQVVGPYWPAERRHVEEGYRNLPFPFEERRLPDLAIEVAWTLDELLGYVGTWSAVKEAGKALGQDPGAAFVDELREAWGDPQTRYRVSWPLTVRAGVIR”, the “soluble on expression in E. coli” value is reported as “not soluble”.
For “MHVTLVEINVHEDKVDEFIEVFRQNHLGSVQEEGNLRFDVLQDPEVNSRFYIYEAYKDEDAVAFHKTTPHYKTCVAKLESLMTGPRKKRLFNGLMP”, the “soluble on expression in E. coli” value was “soluble”.
For “MGSDKIHHHHHHMTNMKQLCLICLAFICLFFLDSCGNKNTFRVEGSIAGYEDTAQVYLTKIIGSDLSVLDSVNPDRKGRFSFVAQADSTPSFYQIKLRKQHINFAARIGSEINIQVGRNSFSDYVIEDNQGPDNNNIRKIALLKEQADNRLDHLYRSYQENKLDASQYQDTIAKVIDEFKTTLRNDFIFQDPKSPASYFALFQQKDGLLYFNVYDPMDAKAFAAVATAYDTYYPTSSYTKSVRDLSLLGIAAMRRDRVAKDITTRKIEVKDIPETILIDRKGNEQPLSKVVETNDRVLIVFTSYQAEWSPSLVKEQRALYQRHCNNGFQIYEISVDKDLYFWQNATRTLPWITVNDSEGKAALSFNVRSLPTFFLIQDGELKRLQRLESL”, the “soluble on expression in E. coli” value was “not soluble”.
In the case of “MGSDKIHHHHHHMMLRASYGTIRKVNGNSSLEMDTAYLMLGERCVYNCLYCAQSRSSTSPSHFLSRVTWKEVSEDLLGKLNDRFKRVCIQVVSYPSYGKDLRLIIPRFRIPVSVSVRAVSIEEVVEYFELGADRVGIAVDVPNKTLFEKIRGGKYERHLHILEKVSEMFPGRITTHVIVGLGESDKDIVDFTVWARERNIVVSLFAFTPIKGTAFENRERPSLERYRKIQLVTYLLEKNLIKPENIIFDSNGKIIDVEWNGEFPEEALRTRGCPHCTRPYYNESPRGPIYNVHWR”, the “soluble on expression in E. coli” value is reported as “not soluble”.
With “MIYEIGGHEVSIVRATPGLAKSYYDLLMELYEDPNSYILVNYSKDPPQLESIVERSKNWNVHPHYMHFALYKDKVVGFAGSLLGPDYGPEVQPHIAEIYYGVSKGWRKTGLIYALLYTALSDINAKIVKATAYVENLPSINVLLKIGLRIIAVLEENDFHYMSGKMHDDYLFRGFRSDCLNRLPGLLEKHGISVIR” the “soluble on expression in E. coli” value was “not soluble”.
